# Data taken from the supplement of paper PMC9732359.
# ± gives the uncertainty stated by the source.
# Test: protein stability index of a GFP-peptide fusion (yeast GPS) (PSI 1-4); higher = more stable; sorted into four equal gates, so the index is relative within each strain
# How it was run: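 Mid-log yeast cultures in leucine-free medium, carrying a pooled plasmid library, were sorted into four equal gates by their GFP/Cherry fluorescence ratio. Each plasmid expressed Cherry along with GFP fused upstream of a tiled 17-residue yeast protein peptide. Plasmids recovered from each gate were PCR-amplified and Illumina-sequenced, with reads assigned to strains by barcodes. The protein stability index was obtained by summing each gate's read frequency weighted by its gate number.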
sequence,measurement,setting,value
QVLMDINTLNGGSSDTA [GAL11],protein stability index,doa10∆,3.29 ± 0.074
same,protein stability index,pdr5∆,3.22 ± 0.072
same,protein stability index,san1∆,3.15 ± 0.061
same,protein stability index,ubr1∆,3.1 ± 0.061
ASSPIILEEGSSGMGAF [RPN10],protein stability index,doa10∆,3.04 ± 0.079
same,protein stability index,pdr5∆,3.04 ± 0.083
same,protein stability index,san1∆,2.99 ± 0.089
same,protein stability index,ubr1∆,3.14 ± 0.059
SAPAPAAAAPAPVAAAA [FAS2],protein stability index,doa10∆,3.24 ± 0.24
same,protein stability index,pdr5∆,3.21 ± 0.28
same,protein stability index,san1∆,2.49 ± 0.13
same,protein stability index,ubr1∆,3.28 ± 0.29
TKGENYQLVKTLGEQLI [FAS2],protein stability index,doa10∆,3.06 ± 0.11
same,protein stability index,pdr5∆,3.24 ± 0.13
same,protein stability index,san1∆,2.6 ± 0.13
same,protein stability index,ubr1∆,3.27 ± 0.15
IDLDHKRFLILQGEVEN [SMC4],protein stability index,doa10∆,1.58 ± 0.073
same,protein stability index,pdr5∆,2.09 ± 0.087
same,protein stability index,san1∆,1.81 ± 0.09
same,protein stability index,ubr1∆,2.46 ± 0.057
IAAIIGRLNTLVISLAA [IRR1],protein stability index,doa10∆,2.1 ± 0.035
same,protein stability index,pdr5∆,1.99 ± 0.036
same,protein stability index,san1∆,2.31 ± 0.052
same,protein stability index,ubr1∆,1.77 ± 0.03
LEEQQQLEDESSRLEFV [YML103C/NUP188],protein stability index,doa10∆,3.43 ± 0.084
same,protein stability index,pdr5∆,3.3 ± 0.086
same,protein stability index,san1∆,3.39 ± 0.06
same,protein stability index,ubr1∆,3.46 ± 0.08
IAHENEQKWLIYDKKDH [SRB8],protein stability index,doa10∆,2.88 ± 0.13
same,protein stability index,pdr5∆,2.83 ± 0.093
same,protein stability index,san1∆,2.77 ± 0.17
same,protein stability index,ubr1∆,2.8 ± 0.071
AIIYQRGKDGKLHVAAK [YGL100W/SEH1],protein stability index,doa10∆,3.25 ± 0.12
same,protein stability index,pdr5∆,3.31 ± 0.1
same,protein stability index,san1∆,2.9 ± 0.13
same,protein stability index,ubr1∆,3.02 ± 0.18
SQRAQVVTMSVKSVNDP [RPC37],protein stability index,doa10∆,2.17 ± 0.073
same,protein stability index,pdr5∆,2.4 ± 0.11
same,protein stability index,san1∆,1.89 ± 0.08
same,protein stability index,ubr1∆,1.97 ± 0.1
SIYKYIHLNELLTNDES [SNF12],protein stability index,doa10∆,2.54 ± 0.063
same,protein stability index,pdr5∆,2.71 ± 0.053
same,protein stability index,san1∆,2.19 ± 0.071
same,protein stability index,ubr1∆,2.63 ± 0.084
DVTHTLGMLDDNKMDSV [SMC4],protein stability index,doa10∆,3.15 ± 0.095
same,protein stability index,pdr5∆,3.03 ± 0.082
same,protein stability index,san1∆,3.21 ± 0.049
same,protein stability index,ubr1∆,3.27 ± 0.097
IAPRRKRLADGLSVTQK [DIS3],protein stability index,doa10∆,3.38 ± 0.088
same,protein stability index,pdr5∆,3.3 ± 0.074
same,protein stability index,san1∆,3.16 ± 0.068
same,protein stability index,ubr1∆,3.1 ± 0.061
AHLWQKIHESIVFDICQ [PRP8],protein stability index,doa10∆,2.56 ± 0.09
same,protein stability index,pdr5∆,2.69 ± 0.11
same,protein stability index,san1∆,2.27 ± 0.13
same,protein stability index,ubr1∆,2.39 ± 0.098
LAGMDVEDALDKDSTKE [FAS2],protein stability index,doa10∆,3.43 ± 0.27
same,protein stability index,pdr5∆,3.72 ± 0.19
HGLILELQKIWQIEEAG [SRB5],protein stability index,doa10∆,2.86 ± 0.094
same,protein stability index,pdr5∆,2.93 ± 0.091
same,protein stability index,san1∆,3.19 ± 0.048
same,protein stability index,ubr1∆,3.14 ± 0.043
VSECIILGQTMSIGTGS [RPO31],protein stability index,doa10∆,2.06 ± 0.078
same,protein stability index,pdr5∆,2 ± 0.061
same,protein stability index,san1∆,1.89 ± 0.086
same,protein stability index,ubr1∆,2.58 ± 0.055
KAMDIPIGRHEELLAQY [SWP82],protein stability index,doa10∆,2.07 ± 0.044
same,protein stability index,pdr5∆,2.25 ± 0.043
same,protein stability index,san1∆,2.13 ± 0.068
same,protein stability index,ubr1∆,2 ± 0.029
EEHHEEEPSRVDPEQEA [RPT4],protein stability index,doa10∆,3.09 ± 0.082
same,protein stability index,pdr5∆,3.28 ± 0.094
same,protein stability index,san1∆,3.14 ± 0.052
same,protein stability index,ubr1∆,3.26 ± 0.064
ITSFLLSKMENVNLDDY [NAS6],protein stability index,doa10∆,1.95 ± 0.11
same,protein stability index,pdr5∆,1.54 ± 0.052
same,protein stability index,san1∆,1.87 ± 0.12
same,protein stability index,ubr1∆,1.85 ± 0.057
TSTVNRLNTVTRVHQLM [MCD1],protein stability index,doa10∆,3.22 ± 0.12
same,protein stability index,pdr5∆,1.49 ± 0.06
same,protein stability index,san1∆,2.21 ± 0.2
same,protein stability index,ubr1∆,2.57 ± 0.094
HGSISPQEESVSPNISS [SIR3],protein stability index,doa10∆,2.82 ± 0.075
same,protein stability index,pdr5∆,3.06 ± 0.07
same,protein stability index,san1∆,2.98 ± 0.046
same,protein stability index,ubr1∆,3.01 ± 0.034
RYKFPGQQKIILSKKWG [RPL10],protein stability index,doa10∆,2.69 ± 0.22
same,protein stability index,ubr1∆,2.29 ± 0.21
LIAVYYSFGGLLMRLEG [RPB8],protein stability index,doa10∆,2.69 ± 0.059
same,protein stability index,pdr5∆,2.79 ± 0.076
same,protein stability index,san1∆,3.07 ± 0.1
same,protein stability index,ubr1∆,2.89 ± 0.069
EYEKRNHGGSLGKYDLT [SRP68],protein stability index,doa10∆,2.81 ± 0.18
same,protein stability index,pdr5∆,2.56 ± 0.15
same,protein stability index,san1∆,2.15 ± 0.14
same,protein stability index,ubr1∆,1.3 ± 0.14
DKFPYKKLELPKYIDEL [SWP82],protein stability index,doa10∆,2.73 ± 0.074
same,protein stability index,pdr5∆,2 ± 0.058
same,protein stability index,san1∆,2.56 ± 0.064
same,protein stability index,ubr1∆,2.83 ± 0.08
SLHILMIFWNDICQIDT [SRB8],protein stability index,doa10∆,1.36 ± 0.031
same,protein stability index,pdr5∆,1.33 ± 0.032
same,protein stability index,san1∆,1.52 ± 0.053
same,protein stability index,ubr1∆,1.92 ± 0.029
VKNTNANPVVATDPVAA [SWP82],protein stability index,doa10∆,2 ± 0.1
same,protein stability index,pdr5∆,2.91 ± 0.1
same,protein stability index,san1∆,2.5 ± 0.091
same,protein stability index,ubr1∆,2.47 ± 0.061
KTATVKINKKLNKAGKP [RPL38],protein stability index,doa10∆,2.73 ± 0.17
same,protein stability index,pdr5∆,3.21 ± 0.11
same,protein stability index,san1∆,3.22 ± 0.098
same,protein stability index,ubr1∆,3.19 ± 0.1
KKRNMPLQSIPEIGNRK [SWI1],protein stability index,doa10∆,2.62 ± 0.041
same,protein stability index,pdr5∆,2.67 ± 0.037
same,protein stability index,san1∆,2.81 ± 0.038
same,protein stability index,ubr1∆,2.63 ± 0.033
EVDYEDKDNPVDSRNET [SRB4],protein stability index,doa10∆,3.46 ± 0.19
same,protein stability index,pdr5∆,2.99 ± 0.17
same,protein stability index,san1∆,3.47 ± 0.12
same,protein stability index,ubr1∆,3.33 ± 0.25
ETIKMKELDQELIIDPL [BRN1],protein stability index,doa10∆,2.98 ± 0.12
same,protein stability index,pdr5∆,3.04 ± 0.15
same,protein stability index,san1∆,2.6 ± 0.26
same,protein stability index,ubr1∆,3.01 ± 0.064
EQVLSAAATFPIAQPAT [RPL13A],protein stability index,doa10∆,2.66 ± 0.059
same,protein stability index,pdr5∆,2.24 ± 0.057
same,protein stability index,san1∆,1.74 ± 0.084
same,protein stability index,ubr1∆,2.54 ± 0.043
WCTTCKSAENIIKMTIP [RET1],protein stability index,doa10∆,3.08 ± 0.077
same,protein stability index,pdr5∆,3.1 ± 0.095
same,protein stability index,san1∆,3.11 ± 0.067
same,protein stability index,ubr1∆,3.03 ± 0.071
KIFTPNLLQISAAELER [SNF5],protein stability index,doa10∆,1.77 ± 0.064
same,protein stability index,pdr5∆,1.97 ± 0.061
same,protein stability index,san1∆,1.76 ± 0.1
same,protein stability index,ubr1∆,1.33 ± 0.066
KKEANLFPEQQTKEIKT [RPL6B],protein stability index,doa10∆,2.62 ± 0.08
same,protein stability index,pdr5∆,3.25 ± 0.074
same,protein stability index,san1∆,2.56 ± 0.082
same,protein stability index,ubr1∆,3.23 ± 0.076
TRIAGVVYHPSNNELVR [RPS8A],protein stability index,doa10∆,2.666 ± 0.019
same,protein stability index,pdr5∆,2.47 ± 0.018
same,protein stability index,san1∆,2.56 ± 0.02
same,protein stability index,ubr1∆,2.652 ± 0.013
TPYNIDRLTQLVRNGPN [RPO21],protein stability index,doa10∆,3.05 ± 0.12
same,protein stability index,pdr5∆,3.19 ± 0.13
same,protein stability index,san1∆,3.17 ± 0.076
same,protein stability index,ubr1∆,3.18 ± 0.2
ATSVESVDIGVETILSG [FAS2],protein stability index,doa10∆,2.93 ± 0.084
same,protein stability index,pdr5∆,2.9 ± 0.089
same,protein stability index,san1∆,2.13 ± 0.089
same,protein stability index,ubr1∆,3.1 ± 0.069
ITHRDLHYDKDYNLRIY [SSN8],protein stability index,doa10∆,2.21 ± 0.051
same,protein stability index,pdr5∆,2.1 ± 0.041
same,protein stability index,san1∆,2.46 ± 0.043
same,protein stability index,ubr1∆,2.18 ± 0.04
FITRLAQGLLHLGKGTM [RPN1],protein stability index,doa10∆,2.9 ± 0.086
same,protein stability index,pdr5∆,2.99 ± 0.091
same,protein stability index,san1∆,2.3 ± 0.14
same,protein stability index,ubr1∆,2.23 ± 0.074
NEDLEDGHYIEENSQGN [REC8],protein stability index,pdr5∆,3.37 ± 0.27
TVSRAYGGSRCANCVKE [RPL34A],protein stability index,doa10∆,2.4 ± 0.071
same,protein stability index,pdr5∆,2.96 ± 0.068
same,protein stability index,san1∆,2.43 ± 0.1
same,protein stability index,ubr1∆,2.19 ± 0.043
MVAYSPIIATYGNRAEQ [SRP68],protein stability index,doa10∆,2.18 ± 0.085
same,protein stability index,pdr5∆,2.54 ± 0.059
same,protein stability index,san1∆,2.7 ± 0.082
same,protein stability index,ubr1∆,2.78 ± 0.073
LSGLAQRKTNGASNGDD [BRN1],protein stability index,doa10∆,3.15 ± 0.17
same,protein stability index,pdr5∆,3.29 ± 0.17
same,protein stability index,san1∆,3.05 ± 0.077
same,protein stability index,ubr1∆,3.6 ± 0.15
LTHVDLIEKFLRYNPLE [RPB10],protein stability index,doa10∆,2.91 ± 0.14
same,protein stability index,pdr5∆,3.29 ± 0.12
same,protein stability index,san1∆,3.23 ± 0.071
same,protein stability index,ubr1∆,3.12 ± 0.04
NNNNNNNDDNGNNNNNN [MED2],protein stability index,doa10∆,3.277 ± 0.029
same,protein stability index,pdr5∆,3.284 ± 0.023
same,protein stability index,san1∆,3.327 ± 0.017
same,protein stability index,ubr1∆,3.286 ± 0.023
LVAKLKKVKSASKKSGG [SMC4],protein stability index,doa10∆,2.4 ± 0.074
same,protein stability index,pdr5∆,2.62 ± 0.085
same,protein stability index,san1∆,2.13 ± 0.12
same,protein stability index,ubr1∆,2.45 ± 0.052
IKVWTIKGQCLATLLGH [ASC1],protein stability index,doa10∆,2.22 ± 0.085
same,protein stability index,pdr5∆,1.59 ± 0.099
same,protein stability index,san1∆,1.69 ± 0.1
same,protein stability index,ubr1∆,1.39 ± 0.057
PLQNNLPELWALLNFVL [SNF2],protein stability index,doa10∆,2.69 ± 0.051
same,protein stability index,pdr5∆,2.64 ± 0.045
same,protein stability index,san1∆,2.56 ± 0.057
same,protein stability index,ubr1∆,2.46 ± 0.037
SKFNNADDVFTGTGLQD [RPC31],protein stability index,doa10∆,3.35 ± 0.1
same,protein stability index,pdr5∆,3.38 ± 0.091
same,protein stability index,san1∆,3.12 ± 0.056
same,protein stability index,ubr1∆,3.17 ± 0.066
PDPRSTVIPEDEEIIQL [RPO21],protein stability index,doa10∆,2.65 ± 0.081
same,protein stability index,pdr5∆,2.75 ± 0.087
same,protein stability index,san1∆,2.79 ± 0.077
same,protein stability index,ubr1∆,2.66 ± 0.063
SLHRQQQQQQQQVPPLP [DLS1],protein stability index,doa10∆,2.78 ± 0.056
same,protein stability index,pdr5∆,2.81 ± 0.06
same,protein stability index,san1∆,2.63 ± 0.046
same,protein stability index,ubr1∆,2.94 ± 0.061
FKYIYELILAGAIDEAL [YDL116W/NUP84],protein stability index,doa10∆,1.6 ± 0.074
same,protein stability index,pdr5∆,1.5 ± 0.073
same,protein stability index,san1∆,1.44 ± 0.1
same,protein stability index,ubr1∆,1.52 ± 0.067
